Reference: article PMC6146036 (Frontiers in Molecular Neuroscience, 2018)
Entries after “also recorded” stand apart in the source; their conditions may differ.

Columns and labels:
[1] = biological target: T1, human recombinant choline acetyltransferase (rChAT) (Homo sapiens, UniProt P28329); experiment: Fluorometric in vitro ChAT activity assay (human rChAT, CPM read-out); format: biochemical; details: for direction of effect on ChAT activity at high concentrations: 0 to 3,800 ng/mL (0–833.3 nM), 1:2 dilutions, two independent experiments, Figure 2C; for difference in slopes of ChAT rate vs gelatin control: 6.4 ng/mL Aβ40 or 0.16 ng/mL Aβ42 (F = 21, p < 0.0001), linear regression; for effect on increases in ChAT activity at the higher Aβ concentration points: 160 and 800 ng/mL Aβ40, 100 ng/mL Aβ42, activity still higher than baseline; for concentration range giving the highest level of ChAT activation in the mixture: Aβ40:Aβ42 10:1 mixture, Figure 5C, with or without gelatin; for effect on ChAT activity at physiological concentrations: CSF concentrations ∼4–6.4 ng/mL Aβ40, ∼0.4–0.8 ng/mL Aβ42, Figures 2A,B
T1 construct: made in house; host or cells: E. coli BL21 Rosetta2
T1 sequence (P28329 1-630 isoform P28329-3): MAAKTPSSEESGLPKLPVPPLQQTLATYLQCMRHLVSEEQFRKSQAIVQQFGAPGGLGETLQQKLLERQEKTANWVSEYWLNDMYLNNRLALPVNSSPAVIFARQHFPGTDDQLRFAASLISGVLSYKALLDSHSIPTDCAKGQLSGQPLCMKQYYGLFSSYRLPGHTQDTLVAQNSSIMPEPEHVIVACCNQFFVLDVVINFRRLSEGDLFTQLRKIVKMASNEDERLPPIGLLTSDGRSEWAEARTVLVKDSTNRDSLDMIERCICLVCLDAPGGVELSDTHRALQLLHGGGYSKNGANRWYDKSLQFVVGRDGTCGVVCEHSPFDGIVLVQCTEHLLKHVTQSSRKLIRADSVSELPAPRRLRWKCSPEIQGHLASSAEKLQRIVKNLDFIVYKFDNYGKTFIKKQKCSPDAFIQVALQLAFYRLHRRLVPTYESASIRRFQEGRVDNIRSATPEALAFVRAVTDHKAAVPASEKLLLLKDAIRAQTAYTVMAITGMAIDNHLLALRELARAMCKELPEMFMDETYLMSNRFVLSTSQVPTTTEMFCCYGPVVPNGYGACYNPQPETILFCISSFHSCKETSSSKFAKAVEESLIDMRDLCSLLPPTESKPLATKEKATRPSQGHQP
Method: Recombinant ChAT was purified as described previously ([Kumar et al., 2016a], [2017]). Briefly, DYT media was inoculated with an O/N culture of E. coli BL21 Rosetta2 transformed with pProExHTa-ChAT (a gift from Dr. Brian Shilton, Department of Biochemistry, University of Western Ontario, London, ON, Canada). The bacteria were grown in shaking incubator at 37°C with 200 rpm until the optical density at 600 nm reached 0.5. After which, 0.5 mM IPTG was added and His6-ChAT was expressed for approximately 16 h at 18°C. Next, the cells were harvested and His6-ChAT was purified with “Ni-NTA fast start Kit” (Qiagen) following the manufacturer’s instructions. The elution buffer was exchanged to storage buffer [10 mM Tris pH 7.4, 500 mM NaCl, 10% (v/v) glycerol] using 30 kDa molecular weight cutoff Amicon Ultra concentrators (Merck Millipore). The purity and molecular weight of the protein were determined using SDS-PAGE electrophoresis. The total protein concentration was determined using DC Protein Assay (Bio-Rad). The purified protein was aliquoted and stored at −80°C.
ChAT activity was measured with our newly developed robust in-house fluorometric assay, using human rChAT protein. […] The reagents, choline chloride (C7017), acetyl coenzyme-A (ACoA, A2181), 7-diethylamino-3-(4-maleimidophenyl)-4-methylcoumarin (CPM) (C1484), thioflavin-T (ThT; T3516), and gelatin (G7041) were purchased from Sigma-Aldrich (St. Louis, MO, United States).
Then, 50 μL of a cocktail-A [dilution buffer containing 10 μM ACoA (final concentration) and 15 μM CPM (final concentration)] was added to each well. Immediately after adding the cocktail-A, the changes in fluorescence were monitored kinetically at 479 nm emission wavelength after exciting at 390 nm wavelength, at 1- to 2-min intervals for 15–20 min using a microplate spectrophotometer reader (Infinite M1000, Tecan).
Each Aβ peptide dilution was run in triplicates. On each 96-wells plate, several enzyme wells without Aβ were also included as positive controls and for estimating the activation level by Aβ peptides. Negative controls were wells without enzyme, but with all the other above-mentioned reagents. The kinetic rate of enzyme activity (as ΔRFU/min slope data) was calculated and processed using the GraphPad Prism 7 analysis software. The actual rate values as well as statistical analysis values (P-values) of ChAT activity at different Aβ concentrations or alone were calculated after fitting the curve with the linear regression function in the GraphPad Prism 7. […]

[2] = Thioflavin-T (ThT) fluorescence Aβ fibrillization assay; format: physicochemical; details: 800 ng/mL Aβ40, 100 ng/mL Aβ42; ThT 1 μM, pH 7.4, 37°C overnight, ex 450/em 485 nm, ChAT, choline and ACoA as in activity assay; method: quadruplicate, legend: mean ± SEM of three readings
Method: The ThT fluorescence assay was used to ensure that the Aβ peptides remained soluble during the aforementioned experimental setups. The ThT fluorescence assay was performed in 96-well black plates with a transparent bottom, as described before ([Kumar et al., 2016b]). […] The concentration of ChAT, choline, and ACoA were as used in the aforementioned experiments. To each well, 100 μL/well of a 1 μM ThT solution was added, the plate was then carefully sealed and the changes in fluorescence were monitored from the bottom of the wells, at an emission and excitation wavelengths of 485 nm and 450 nm, respectively, at 15-min intervals at 37°C for an overnight duration, using a microplate spectrophotometer reader (Infinite M1000, Tecan). Each Aβ peptide concentration was run in quadruplicate. Several wells with Aβ alone were also included as control, and wells without ThT were used as negative controls.

[3] = system: cultured cholinergic neurons; details: high nanomolar concentration; ref Pedersen et al., 1996; Hoshi et al., 1997; Kar et al., 1998; Nunes-Tavares et al., 2012; cited from earlier work
Text: The functional relationship between Aβ and the cholinergic system, especially ChAT, is quite complex and still need further exploration to gain a better understanding of Aβ native function and role in AD pathology.

Row | change in ChAT activity by gelatin ([1]; gelatin 0.5 to 4 mg/mL, Figure 4A, mean ± SD of four readings) | rate of ChAT activity in the presence of Aβ40 ([1]; 6.4 ng/mL Aβ40, rChAT 0.146 μg/mL, 150 μM choline chloride, 10 μM ACoA, 15 μM CPM, 30 min room temperature, pH 7.4, no gelatin, mean ± SD of ≥2 readings, control (ChAT alone) 26.06 ± 1.07, F = 33.21, p < 0.0001) | difference in elevations or intercepts of ChAT rate vs gelatin control ([1]; 1 mg/mL gelatin, 6.4 ng/mL Aβ40, F = 9.2, p < 0.004) | difference in slopes of ChAT rate vs gelatin control ([1]; 1 mg/mL gelatin) | effect on increases in ChAT activity at the higher Aβ concentration points [1] | concentration range giving the highest level of ChAT activation in the mixture [1] [ng/mL] | concentration at which the increase in ChAT activity reaches a plateau ([1]; no gelatin, dilution series 0–800 ng/mL Aβ40, 0–100 ng/mL Aβ42) [ng/mL] | rate of ChAT activity in the presence of Aβ42 ([1]; 0.16 ng/mL Aβ42, rChAT 0.146 μg/mL, 150 μM choline chloride, 10 μM ACoA, 15 μM CPM, 30 min room temperature, pH 7.4, no gelatin, mean ± SD of ≥2 readings, control (ChAT alone) 53.8 ± 1.11, F = 98.5, p < 0.0001) | Substance | effect of gelatin on ChAT activity ([1]; gelatin 0 to 4 mg/mL, mean ± SD of four readings) | direction of effect on ChAT activity at high concentrations [1] | effect on ChAT activity at physiological concentrations ([1]; no gelatin) | overall effect on ChAT across experiments ([1]; some experiments vs others) | difference in ThT fluorescence intensity vs control wells (no Aβ) [2] | reduction in ACh synthesis [3]
1 | −5% to +9 | – | – | – | – | – | – | – | gelatin [reference compound] | slight increase in the rate of ChAT activity within the 0.5–2 mg/mL gelatin concentration range; also recorded: no significant effect on ChAT activity | – | – | – | – | –
2 | – | 36.5 ± 1.48 ΔRFU/min | significant | not statistically significant | started to decline | 1.3 to 6.4 | ~32 | – | Aβ40: amyloid-β peptide, recombinant, purchased from rPeptide (Cat no. A-1153-1) | – | inhibition of ChAT rather than activation | able to increase the activity of ChAT at physiological concentrations | inhibited ChAT in some experiments, while in others it enhanced its activity | no significant differences in the ThT fluorescence intensity | –
3 | – | – | – | statistically highly significant | started to decline | 0.12 to 0.64 | – | 71.6 ± 1.41 ΔRFU/min | Aβ42: amyloid-β peptide, recombinant, purchased from rPeptide (Cat no. A-1166-1) | – | activation of ChAT | able to increase the activity of ChAT at physiological concentrations | – | no significant differences in the ThT fluorescence intensity | 40–50%
